Patent publication US20240376185A1 (SMIVET B V, published 2024)

Columns and labels:
[1] = molecular target: T1, tetanus neurotoxin (TeNT), authentic tetanus holotoxin (Clostridium tetani, UniProt P04958 2-1315); assay: competition ELISA on TeNT, binder biotinylated; competitor SVT06L
Target sequence in this assay (P04958 2-457 limits assumed, chain 1 of 2): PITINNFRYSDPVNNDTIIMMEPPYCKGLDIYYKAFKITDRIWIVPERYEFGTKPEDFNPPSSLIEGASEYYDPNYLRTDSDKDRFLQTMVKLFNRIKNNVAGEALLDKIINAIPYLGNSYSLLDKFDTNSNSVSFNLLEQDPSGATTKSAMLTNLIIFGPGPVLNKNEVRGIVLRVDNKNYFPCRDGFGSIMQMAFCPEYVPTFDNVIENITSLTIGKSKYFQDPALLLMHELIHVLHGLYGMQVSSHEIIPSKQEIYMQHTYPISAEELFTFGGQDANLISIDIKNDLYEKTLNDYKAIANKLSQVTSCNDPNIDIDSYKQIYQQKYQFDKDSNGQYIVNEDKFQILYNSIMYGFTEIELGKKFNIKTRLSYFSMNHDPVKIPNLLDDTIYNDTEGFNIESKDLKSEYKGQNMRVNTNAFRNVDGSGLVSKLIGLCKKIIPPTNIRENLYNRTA
Target sequence in this assay (P04958 458-1315 limits assumed, chain 2 of 2): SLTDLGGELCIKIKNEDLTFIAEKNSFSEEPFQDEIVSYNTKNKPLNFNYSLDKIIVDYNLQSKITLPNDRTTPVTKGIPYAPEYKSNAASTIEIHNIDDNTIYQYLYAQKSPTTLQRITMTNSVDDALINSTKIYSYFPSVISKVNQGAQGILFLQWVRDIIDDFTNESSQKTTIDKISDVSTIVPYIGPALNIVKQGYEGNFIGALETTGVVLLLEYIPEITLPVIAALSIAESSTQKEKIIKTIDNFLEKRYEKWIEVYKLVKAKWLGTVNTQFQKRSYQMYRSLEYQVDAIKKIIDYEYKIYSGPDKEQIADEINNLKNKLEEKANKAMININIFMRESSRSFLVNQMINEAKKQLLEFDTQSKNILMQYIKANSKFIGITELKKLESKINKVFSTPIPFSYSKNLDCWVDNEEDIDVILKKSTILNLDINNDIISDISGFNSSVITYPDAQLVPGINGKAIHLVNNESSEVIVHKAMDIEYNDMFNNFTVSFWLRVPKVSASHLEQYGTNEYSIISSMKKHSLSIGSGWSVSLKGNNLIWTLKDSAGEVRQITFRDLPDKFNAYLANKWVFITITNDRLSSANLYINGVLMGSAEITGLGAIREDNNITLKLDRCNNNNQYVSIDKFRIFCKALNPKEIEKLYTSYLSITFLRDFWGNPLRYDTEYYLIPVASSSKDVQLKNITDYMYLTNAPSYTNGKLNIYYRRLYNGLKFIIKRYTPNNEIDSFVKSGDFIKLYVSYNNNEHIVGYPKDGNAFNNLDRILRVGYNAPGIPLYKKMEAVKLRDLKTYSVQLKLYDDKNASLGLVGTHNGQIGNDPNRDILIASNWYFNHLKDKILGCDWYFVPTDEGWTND

[2] = molecular target: T1, tetanus neurotoxin (TeNT), authentic …; assay: competition ELISA on TeNT, binder biotinylated; competitor SVT15L-3FW4M
Target sequence in this assay (P04958 2-457 limits assumed, chain 1 of 2): as the sequence (P04958 2-457 limits assumed, chain 1 of 2) above
Target sequence in this assay (P04958 458-1315 limits assumed, chain 2 of 2): as the sequence (P04958 458-1315 limits assumed, chain 2 of 2) above

[3] = molecular target: T1, tetanus neurotoxin (TeNT), authentic …; assay: GT1b-TeNT inhibition ELISA, unlabelled binder
Target sequence in this assay (P04958 2-457 limits assumed, chain 1 of 2): as the sequence (P04958 2-457 limits assumed, chain 1 of 2) above
Target sequence in this assay (P04958 458-1315 limits assumed, chain 2 of 2): as the sequence (P04958 458-1315 limits assumed, chain 2 of 2) above

[4] = molecular target: T1, tetanus neurotoxin (TeNT), authentic …; assay: ELISA, directly coated TeNT, unlabelled binder
Target sequence in this assay (P04958 2-457 limits assumed, chain 1 of 2): as the sequence (P04958 2-457 limits assumed, chain 1 of 2) above
Target sequence in this assay (P04958 458-1315 limits assumed, chain 2 of 2): as the sequence (P04958 458-1315 limits assumed, chain 2 of 2) above

[5] = molecular target: T1, tetanus neurotoxin (TeNT), authentic …; assay: competition ELISA on TeNT, binder biotinylated; competitor SVT13L
Target sequence in this assay (P04958 2-457 limits assumed, chain 1 of 2): as the sequence (P04958 2-457 limits assumed, chain 1 of 2) above
Target sequence in this assay (P04958 458-1315 limits assumed, chain 2 of 2): as the sequence (P04958 458-1315 limits assumed, chain 2 of 2) above

[6] = molecular target: T1, tetanus neurotoxin (TeNT), authentic …; assay: ELISA, TeNT captured with cAb-TT2, biotinylated binder
Target sequence in this assay (P04958 2-457 limits assumed, chain 1 of 2): as the sequence (P04958 2-457 limits assumed, chain 1 of 2) above
Target sequence in this assay (P04958 458-1315 limits assumed, chain 2 of 2): as the sequence (P04958 458-1315 limits assumed, chain 2 of 2) above

[7] = molecular target: T1, tetanus neurotoxin (TeNT), authentic …; assay: competition ELISA on TeNT, binder biotinylated; competitor SVT16L
[8] = molecular target: T1, tetanus neurotoxin (TeNT), authentic …; assay: competition ELISA on TeNT, binder biotinylated; competitor mAb 11n185
[9] = molecular target: T1, tetanus neurotoxin (TeNT), authentic …; assay: competition ELISA on TeNT, binder biotinylated; competitor SVT02L
[10] = molecular target: T1, tetanus neurotoxin (TeNT), authentic …; assay: competition ELISA on TeNT, binder biotinylated; competitor mAb 6E7
[11] = molecular target: T1, tetanus neurotoxin (TeNT), authentic …; assay: ELISA, TeNT captured with cAb-TT2, unlabelled binder
[12] = molecular target: T1, tetanus neurotoxin (TeNT), authentic …; assay: competition ELISA on TeNT, binder biotinylated; competitor SVT22L
[13] = molecular target: T1, tetanus neurotoxin (TeNT), authentic …; assay: competition ELISA on TeNT, binder biotinylated; competitor SVT08L
[14] = molecular target: T1, tetanus neurotoxin (TeNT), authentic …; assay: competition ELISA on TeNT, binder biotinylated; competitor mAb 6F57
[15] = molecular target: T1, tetanus neurotoxin (TeNT), authentic …; assay: ELISA, directly coated TeNT, biotinylated binder
[16] = molecular target: T1, tetanus neurotoxin (TeNT), authentic …; assay: competition ELISA on TeNT, binder biotinylated; competitor mAb 14F5
[17] = molecular target: T1, tetanus neurotoxin (TeNT), authentic …; assay: competition ELISA on TeNT, binder biotinylated; competitor SVT34L
[18] = molecular target: T2, recombinant tetanus toxin fragment C (rTTC) (Clostridium tetani, UniProt P04958 865-1315); assay: ELISA, directly coated rTTC, unlabelled binder
T2 sequence: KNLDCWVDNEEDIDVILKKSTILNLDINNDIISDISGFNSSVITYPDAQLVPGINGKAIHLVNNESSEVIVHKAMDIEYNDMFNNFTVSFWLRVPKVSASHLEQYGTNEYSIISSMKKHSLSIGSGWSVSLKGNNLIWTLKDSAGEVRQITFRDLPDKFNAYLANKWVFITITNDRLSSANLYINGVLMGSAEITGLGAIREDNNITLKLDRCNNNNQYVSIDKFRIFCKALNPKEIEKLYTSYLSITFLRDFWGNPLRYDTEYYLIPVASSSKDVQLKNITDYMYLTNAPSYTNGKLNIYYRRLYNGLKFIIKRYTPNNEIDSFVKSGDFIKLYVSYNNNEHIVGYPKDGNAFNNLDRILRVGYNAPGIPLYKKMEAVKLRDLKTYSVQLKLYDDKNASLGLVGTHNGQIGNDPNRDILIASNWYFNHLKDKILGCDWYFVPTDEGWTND

[19] = molecular target: T1, tetanus neurotoxin (TeNT), authentic …; assay: GT1b-TeNT inhibition ELISA, EC at A450 0.59
[20] = molecular target: T1, tetanus neurotoxin (TeNT), authentic …; assay: competition ELISA on TeNT, binder biotinylated; competitor SVT15L
[21] = molecular target: T1, tetanus neurotoxin (TeNT), authentic …; assay: competition ELISA on TeNT, binder biotinylated; competitor SVT03L
[22] = molecular target: T3, tetanus neurotoxin (TeNT), authentic tetanus holotoxin (Clostridium tetani, UniProt P04958 2-1315); assay: ELISA: directly coated TeNT, anti-his6 PO
[23] = molecular target: T3, tetanus neurotoxin (TeNT), authentic …; assay: ELISA: directly coated TeNT, goat anti-llama Ig PO
[24] = molecular target: T3, tetanus neurotoxin (TeNT), authentic …; assay: ELISA: directly coated TeNT, goat anti-llama Ig PO; remark: listed apart in the source
[25] = molecular target: T3, tetanus neurotoxin (TeNT), authentic …; assay: GT1b-TeNT inhibition ELISA
[26] = molecular target: T3, tetanus neurotoxin (TeNT), authentic …; assay: bridging ELISA: coated TeNT, SDA, biotinylated TeNT, StrepPO (bivalent binding)
[27] = molecular target: T3, tetanus neurotoxin (TeNT), authentic …; assay: as above; remark: listed apart in the source
[28] = molecular target: T3, tetanus neurotoxin (TeNT), authentic …; assay: ELISA: directly coated TeNT, anti-his6 PO; remark: listed apart in the source
[29] = molecular target: T3, tetanus neurotoxin (TeNT), authentic …; assay: GT1b-TeNT inhibition ELISA; remark: listed apart in the source

B1: SVT08L (VHH)
VHH: QVQLQESGGGSVQAGGSLRLSCTASEFSYNDYTIAWFRRAAGKGRVEDGEGVASITTSYDRAYDNRIHYGDSVKGRFTISRDNAKNTVYLQMTNLNPSDTAVYYCGLDITPPGGIGASLTEGFLFDYWGQGTQVTVSS
- % inhibition of binding [1]: 95%
- % inhibition of binding [2]: 12%
- minimal absorbance at 450 nm [3]: 0.486
- EC resulting in A450 0.2 [4]: 2.2 ng/mL
- maximal absorbance at 450 nm [4]: 1.37
- % inhibition of binding [5]: 5%
- EC resulting in A450 0.2 [6]: 0.52 ng/mL
- maximal absorbance at 450 nm [6]: 1.2
- % inhibition of binding [7]: 8%
- % inhibition of binding [8]: 4%
- % inhibition of binding [9]: 7%
- % inhibition of binding [10]: 66%
- EC resulting in A450 0.15 [11]: 3.6 ng/mL
- maximal absorbance at 450 nm [11]: 0.36
- % inhibition of binding [12]: 6%
- % inhibition of binding [13]: 96%
- % inhibition of binding [14]: 50%
- EC resulting in A450 0.4 [15]: 0.4 ng/mL
- maximal absorbance at 450 nm [15]: 1.57
- % inhibition of binding [16]: 3%
- % inhibition of binding [17]: 8%
- maximal absorbance at 450 nm [18]: 0.502
- concentration giving A450 of 0.59 [19]: 0.411 µg/mL
- % inhibition of binding [20]: 6%
- % inhibition of binding [21]: 0%

B2: SVT06L (VHH)
VHH: QVQLQESGGGSVQAGGSLRLSCTASELSYDDYTIAWFRRAAGEGRVEDGEGVASITKSYDRAYDNKINYGHSVKGRFTISRDNAKNTVYLQMTDLLPSDTAVYYCALDITPPGGVGASLTEGFLFDYWGQGTQVTVSS
- % inhibition of binding [1]: 96%
- % inhibition of binding [2]: 12%
- minimal absorbance at 450 nm [3]: 0.481
- EC resulting in A450 0.2 [4]: 1.7 ng/mL
- maximal absorbance at 450 nm [4]: 1.39
- % inhibition of binding [5]: 7%
- EC resulting in A450 0.2 [6]: 0.37 ng/mL
- maximal absorbance at 450 nm [6]: 1.2
- % inhibition of binding [7]: -3%
- % inhibition of binding [8]: 5%
- % inhibition of binding [9]: 11%
- % inhibition of binding [10]: 67%
- EC resulting in A450 0.15 [11]: 2.6 ng/mL
- maximal absorbance at 450 nm [11]: 0.409
- % inhibition of binding [12]: 3%
- % inhibition of binding [13]: 97%
- % inhibition of binding [14]: 53%
- EC resulting in A450 0.4 [15]: 0.39 ng/mL
- maximal absorbance at 450 nm [15]: 1.51
- % inhibition of binding [16]: 11%
- % inhibition of binding [17]: 11%
- maximal absorbance at 450 nm [18]: 0.543
- concentration giving A450 of 0.59 [19]: 0.317 µg/mL
- % inhibition of binding [20]: 14%
- % inhibition of binding [21]: -3%

B3: SVT13L (VHH)
VHH: QVQLQESGGGLVQAGGSLRLSCAVSGTNFDDYAIGWFRQAPGKRREAVACISKTDGVTRYGNGVKGRFTISSDEARNTVFLQMNDLKDEDTAIYYCIGDFKSCGMGYKPIDHWGRGIQVTVSS
- % inhibition of binding [1]: 1%
- % inhibition of binding [2]: 8%
- minimal absorbance at 450 nm [3]: 0.126
- EC resulting in A450 0.2 [4]: 1.9 ng/mL
- maximal absorbance at 450 nm [4]: 1.54
- % inhibition of binding [5]: 95%
- EC resulting in A450 0.2 [6]: 1.3 ng/mL
- maximal absorbance at 450 nm [6]: 1.06
- % inhibition of binding [7]: 91%
- % inhibition of binding [8]: 2%
- % inhibition of binding [9]: 7%
- % inhibition of binding [10]: 2%
- EC resulting in A450 0.15 [11]: 4.1 ng/mL
- maximal absorbance at 450 nm [11]: 0.487
- % inhibition of binding [12]: 92%
- % inhibition of binding [13]: 13%
- % inhibition of binding [14]: 0%
- EC resulting in A450 0.4 [15]: 0.57 ng/mL
- maximal absorbance at 450 nm [15]: 1.48
- % inhibition of binding [16]: 5%
- % inhibition of binding [17]: 91%
- maximal absorbance at 450 nm [18]: 1.1
- concentration giving A450 of 0.59 [19]: 0.082 µg/mL
- % inhibition of binding [20]: -19%
- % inhibition of binding [21]: 1%

B4: SVT15L (VHH)
VHH: QVQLQESGGGLVQTGGSLRLSCRASGRAFANYHFGWFRQAPGKDREFVASISWKGGSTYYANFALGRFTSSVDRAESSVYLQMSGLTPEDTATYYCAAHDGGDWNYHTGMDYWGKGILVTVSS
- % inhibition of binding [1]: 1%
- % inhibition of binding [2]: 96%
- minimal absorbance at 450 nm [3]: 0.14
- EC resulting in A450 0.2 [4]: 2.8 ng/mL
- maximal absorbance at 450 nm [4]: 1.34
- % inhibition of binding [5]: 2%
- EC resulting in A450 0.2 [6]: 5.7 ng/mL
- maximal absorbance at 450 nm [6]: 0.825
- % inhibition of binding [7]: 5%
- % inhibition of binding [8]: 0%
- % inhibition of binding [9]: 6%
- % inhibition of binding [10]: 6%
- EC resulting in A450 0.15 [11]: 5.7 ng/mL
- maximal absorbance at 450 nm [11]: 0.477
- % inhibition of binding [12]: 2%
- % inhibition of binding [13]: 15%
- % inhibition of binding [14]: 4%
- EC resulting in A450 0.4 [15]: 2.8 ng/mL
- maximal absorbance at 450 nm [15]: 1.4
- % inhibition of binding [16]: 7%
- % inhibition of binding [17]: 10%
- maximal absorbance at 450 nm [18]: 0.528
- concentration giving A450 of 0.59 [19]: 0.072 µg/mL
- % inhibition of binding [20]: 96%
- % inhibition of binding [21]: -5%

B5: SVT15L-3FW4M (VHH)
VHH: QVQLQESGGGLVQTGGSLRLSCRASGRAFANYHFGWFRQAPGKDREFVASISWKGGSTYYANFALGRFTSSVDRAESSVYLQMSGLTPEDTATYYCAAHDGGDWNYHTGMDYWGQGTQVTVSS
- maximal absorbance value [22]: 0.19 A450
- maximal absorbance value [23]: 0.35 A450
- Effective SDA Concentration at A450 0.15 [24]: 6 ng/mL
- Effective SDA Concentration at A450 0.56 [25]: 31 ng/mL
- Effective SDA Concentration at A450 0.3 [26]: > 1000 ng/mL
- maximal absorbance value [27]: 0.2 A450
- Effective SDA Concentration at A450 0.15 [28]: 26 ng/mL
- minimal absorbance value (GT1b-TeNT inhibition) [29]: 0.19 A450
